Reference: IntAct's records for PubMed 14613973

B1: Fibroblast growth factor receptor 3 (Homo sapiens), P22607-1 (parent)
chain: MGAPACALALCVAVAIVAGASSESLGTEQRVVGRAAEVPGPEPGQQEQLVFGSGDAVELSCPPPGGGPMGPTVWVKDGTGLVPSERVLVGPQRLQVLNASHEDSGAYSCRQRLTQRVLCHFSVRVTDAPSSGDDEDGEDEAEDTGVDTGAPYWTRPERMDKKLLAVPAANTVRFRCPAAGNPTPSISWLKNGREFRGEHRIGGIKLRHQQWSLVMESVVPSDRGNYTCVVENKFGSIRQTYTLDVLERSPHRPILQAGLPANQTAVLGSDVEFHCKVYSDAQPHIQWLKHVEVNGSKVGPDGTPYVTVLKTAGANTTDKELEVLSLHNVTFEDAGEYTCLAGNSIGFSHHSAWLVVLPAEEELVEADEAGSVYAGILSYGVGFFLFILVVAAVTLCRLRSPPKKGLGSPTVHKISRFPLKRQVSLESNASMSSNTPLVRIARLSSGEGPTLANVSELELPADPKWELSRARLTLGKPLGEGCFGQVVMAEAIGIDKDRAAKPVTVAVKMLKDDATDKDLSDLVSEMEMMKMIGKHKNIINLLGACTQGGPLYVLVEYAAKGNLREFLRARRPPGLDYSFDTCKPPEEQLTFKDLVSCAYQVARGMEYLASQKCIHRDLAARNVLVTEDNVMKIADFGLARDVHNLDYYKKTTNGRLPVKWMAPEALFDRVYTHQSDVWSFGVLLWEIFTLGGSPYPGIPVEELFKLLKEGHRMDKPANCTHDLYMIMRECWHAAPSQRPTFKQLVEDLDRVLTVTSTDEYLDLSAPFEQYSPGGQDTPSSSSSGDDSVFAHDLLPPAPPSSGGSRT

Variants of: B1
Settings: with fgf1_human FGF1, P05230
Chain of fgf1_human FGF1, P05230 (P05230 whole entry): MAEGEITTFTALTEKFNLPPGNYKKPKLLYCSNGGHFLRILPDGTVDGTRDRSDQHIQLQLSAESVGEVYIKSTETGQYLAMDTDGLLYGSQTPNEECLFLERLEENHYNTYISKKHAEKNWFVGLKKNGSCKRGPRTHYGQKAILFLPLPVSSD

Row | Variant | effect of a mutation on the interaction
1 | P250R | increasing interaction strength

Variants of: B1
Settings: with fgf2_human FGF2, P09038
Chain of fgf2_human FGF2, P09038 (P09038 whole entry): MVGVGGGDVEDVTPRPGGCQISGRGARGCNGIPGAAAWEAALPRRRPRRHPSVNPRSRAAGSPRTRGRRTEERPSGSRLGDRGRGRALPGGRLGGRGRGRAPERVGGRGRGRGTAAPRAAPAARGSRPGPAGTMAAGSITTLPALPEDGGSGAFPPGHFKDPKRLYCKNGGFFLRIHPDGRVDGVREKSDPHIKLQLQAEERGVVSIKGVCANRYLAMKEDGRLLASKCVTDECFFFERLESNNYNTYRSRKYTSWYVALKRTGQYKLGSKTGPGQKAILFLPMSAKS

Row | Variant | effect of a mutation on the interaction
2 | P250R | causing an interaction

Variants of: B1
Settings: with fgf9_human FGF9, P31371

Row | Variant | effect of a mutation on the interaction
3 | P250R | causing an interaction
